Measured values published in patent publication US20070166787A1 (YEDA RESEARCH AND DEVELOPMENT, published 2007).

B1: death domain (DD) of human TRADD, residues 195-312, Gal4 hybrid construct (other, not shown: large carriers)
chain: PPPPAQTFLFQGQPVVNRPLSLKDQQTFARSVGLKWRKVGRSLQRGCRALRDPALDSLAYEYEREGLYEQAFQLLRRFVQAEGRRATLQRLVEALEENELTSLAEDLLGLTDPNGGLA
notes: Yeast two-hybrid fusion; also called TRADD DD
B2: death domain (DD) of human MORT-1, residues 92-208, Gal4 hybrid construct (other, not shown: large carriers)
chain: PGEEDLCAAFNVICDNVGKDWRRLARQLKVSDTKIDSIEDRYPRNLTERVRESLRIWKNTEKENATVAHLVGALRSCQMNLVADLVQEVQQARDLQNRSGAMSPMSWNSDASTSEAS
notes: Yeast two-hybrid fusion; also called MORT-1 DD; HF1
B4: death domain (DD) of human p55 TNF-R, residues 326-426, Gal4 hybrid construct (receptor, not shown: large carriers)
chain: DPATLYAVVENVPPLRWKEFVRRLGLSDHEIDRLELQNGRCLREAQYSMLATWRRRTPRREATLELLGRVLRDMDLLGCLEDIEEALCGPAALPPAPSLLR
notes: Yeast two-hybrid fusion; also called p55-R; p55 TNF-R DD

Tests used:
[1] = target: the molecule itself; test: yeast two-hybrid, beta-galactosidase filter assay, SFY526
From the text: (§1) Two-Hybrid β-Galactosidase Expression Tests. cDNA inserts were cloned by PCR, either from the full-length cDNAs cloned previously in our laboratory, or from purchased cDNA libraries. Residue numbering in the proteins encoded by the cDNA inserts are as in the Swiss-Prot Data Bank. Point mutants were produced by oligonucleotide-directed mutagenesis (Kunkel, 1994). β-galactosidase expression in yeasts (SFY526 reporter strain (Bartel et al, 1993)) transformed with these cDNAs in the pGBT-9 and pGAD-GH vectors (DNA binding domain (DBD) and activation domain (AD) constructs, respectively) was assessed by a filter assay (Boldin et al, 1995). When expressed in the pGAD-GH vector, RIP and its DD had some cytotoxic effect on the yeasts, manifested in a low yield of yeast colonies.
(§2) The interactions of the DDs of human p55 TNF-R, FAS-R, TRADD, MORT-1 and RIP were evaluated first by a yeast two-hybrid test. The cDNAs encoding these domains were expressed as fusion proteins with the Gal4 DNA binding and activation domains (DBD and AD constructs) in the yeast SFY526 reporter strain, and the binding of these fusion proteins to each other was assessed by determining β-galactosidase expression by the yeasts. The results of these tests are summarized in FIG. 1 and illustrated diagrammatically in FIG. 3.

SNF 1 = target: T1, SNF 1 (UniProt P06782 1-633, limits assumed); test: yeast two-hybrid specificity test (not shown)
T1 sequence (looked up): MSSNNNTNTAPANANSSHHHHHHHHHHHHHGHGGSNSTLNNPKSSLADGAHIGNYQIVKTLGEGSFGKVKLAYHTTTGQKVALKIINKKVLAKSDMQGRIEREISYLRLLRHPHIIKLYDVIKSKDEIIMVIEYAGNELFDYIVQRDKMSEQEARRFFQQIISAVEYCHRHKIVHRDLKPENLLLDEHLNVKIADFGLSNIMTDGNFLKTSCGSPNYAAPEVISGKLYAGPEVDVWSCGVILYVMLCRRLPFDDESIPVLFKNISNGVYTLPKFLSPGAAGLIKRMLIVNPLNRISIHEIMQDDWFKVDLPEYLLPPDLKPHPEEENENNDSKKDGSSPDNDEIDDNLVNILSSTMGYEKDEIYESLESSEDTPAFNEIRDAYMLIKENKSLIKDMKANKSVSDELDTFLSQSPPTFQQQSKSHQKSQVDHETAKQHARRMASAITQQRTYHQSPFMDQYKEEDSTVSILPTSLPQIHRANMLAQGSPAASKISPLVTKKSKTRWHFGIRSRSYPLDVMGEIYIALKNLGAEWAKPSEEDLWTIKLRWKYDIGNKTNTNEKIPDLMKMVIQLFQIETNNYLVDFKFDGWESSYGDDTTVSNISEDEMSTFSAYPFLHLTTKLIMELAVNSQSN

[2] = target: T2, intracellular domain of the human p75 TNF receptor (human, UniProt P20333 288-461, limits assumed); test: yeast two-hybrid specificity test (not shown)
T2 construct: domain: intracellular domain; Irrelevant control in the two-hybrid specificity test; construct not described; also called p75 IC
T2 sequence (looked up): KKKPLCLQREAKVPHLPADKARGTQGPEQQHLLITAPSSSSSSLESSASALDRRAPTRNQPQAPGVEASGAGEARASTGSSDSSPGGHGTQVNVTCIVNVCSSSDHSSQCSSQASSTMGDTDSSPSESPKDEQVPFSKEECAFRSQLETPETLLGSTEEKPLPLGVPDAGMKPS

[3] = target: the molecule itself; test: yeast two-hybrid, self-association, beta-galactosidase filter assay, SFY526
From the text: as §1, §2

[4] = target: B1; test: yeast two-hybrid, beta-galactosidase filter assay, SFY526
From the text: as §1, §2

[5] = target: B4; test: yeast two-hybrid specificity test (not shown)
[6] = target: B1; test: yeast two-hybrid specificity test (not shown)
[7] = target: B2; test: yeast two-hybrid specificity test (not shown)
[8] = target: B1; test: yeast two-hybrid (summing up of Example 2)
From the text: as §1, §2

[9] = target: B2; test: yeast two-hybrid, beta-galactosidase filter assay, SFY526
From the text: as §1, §2

[10] = target: the molecule itself; test: yeast two-hybrid, beta-galactosidase filter assay
From the text: (§3) FIG. 2 depicts interactions of the ‘death domains’ of the P55-R, Fas/APOI, MORT-1, TRADD and. RIP in a yeast two-hybrid test, and the effect of lbr^cg-like mutations in these proteins on their interactions. Assessment of the interaction of Gal4 hybrid constructs encompassing the following human proteins, truncated upstream to their DD motifs: p55-R (residues 326-426), FAS-R (residues 210-319), MORT-1 (residues 92-208), TRADD (residues 195-312) and RIP (residues 261-372), as well as of the following points mutants of these proteins: p55-R L35IN, FAS-R V238N, MORT-1 V121N, and RIP F308N, whose mutation sites within the DDs correspond to that found in the FAS-R of the lpr^cg mice. Each cDNA insert was introduced both into the Gal4 DNA binding domain (DBD) and the Gal4 activation domain (AD) constructs (pGBT9 abd pGAD-GH), and the binding of the inserts in both constructs to all other inserts within transfected SFY526 yeasts was assessed by a β-galactosidase expression filter assay. The results are presented in terms of the time required for development of strong color. ND—not done.
as §1

[11] = target: B1; test: yeast two-hybrid, beta-galactosidase filter assay
From the text: as §3, §1

[12] = target: B2; test: yeast two-hybrid, beta-galactosidase filter assay
From the text: as §3, §1

## B1
[1]
  binding result: binds
SNF 1
  binding result: no binding
[2]
  binding result: no binding

## B2
[3]
  binding result: no binding
[4]
  binding result: binds
SNF 1
  binding result: no binding
[2]
  binding result: no binding

B3: DD of the rat low-affinity NGF receptor (receptor, UniProt P07174 340-425, looked up)
chain: LPLTKREEVEKLLNGDTWRHLAGELGYQPEHIDSFTHEACPVRALLASWGAQDSATLDALLAALRRIQRADIVESLCSESTATSPV
notes: domain: DD; Control in the two-hybrid specificity test; construct not described; also called rat NGF-R DD
[5]
  binding result: no binding
[6]
  binding result: no binding
[7]
  binding result: no binding

## B4
[8]
  binding result: binds
[9]
  binding result: no binding
SNF 1
  binding result: no binding
[2]
  binding result: no binding

B5: human p55 TNF-R DD (residues 326-426) point mutant L351N, Gal4 hybrid construct (receptor, not shown: large carriers)
chain: DPATLYAVVENVPPLRWKEFVRRLGNSDHEIDRLELQNGRCLREAQYSMLATWRRRTPRREATLELLGRVLRDMDLLGCLEDIEEALCGPAALPPAPSLLR
notes: Legend prints 'L35IN'; also called p55-R L35IN; p55 TNF-R (L351N)
[10]
  binding result: no binding
[11]
  binding result: no binding
[12]
  binding result: no binding
